Substitutions are numbered along the chain they refer to.
B1: SEQ ID NO 85 (designed binder)
chain: MLPAPKNLVVSRVTEDSARLSWTAPDAAFDSFFIWYWEKSVDGEAIVLTVPGSERSYDLTGLKPGTEYNVGIQGVKGGTPSDPLSAIFTT
notes: FN3 domain
B2: SEQ ID NO 136 (designed binder)
chain: MLPAPKNLVVSRVTEDSARLSWTAPDAAFDSFFIYYIESYPAGEAIVLTVPGSERSYDLTGLKPGTEYWMGIDGVKGGRWSTPLSAIFTT
notes: FN3 domain
B3: SEQ ID NO 146 (designed binder)
chain: MLPAPKNLVVSRVTEDSARLSWTAPDAAFDSFYIAYAEPRPDGEAIVLTVPGSERSYDLTGLKPGTEYSVLIHGVKGGLLSSPLSAIFTT
notes: FN3 domain
B4: SEQ ID NO 149 (designed binder)
chain: B3 chain with Y33I, A35P, P39V, L79K, S82E
notes: FN3 domain
B5: SEQ ID NO 152 (designed binder)
chain: B1 chain with W35G, W37L, K39P, S40Q, V41P, D42P, G71T, T79F, D82S
notes: FN3 domain
B6: SEQ ID NO 164 (designed binder)
chain: B3 chain with Y33L, A35P, P39T, R40S, D42S, L79H, S82D
notes: FN3 domain
B7: SEQ ID NO 168 (designed binder)
chain: B1 chain with A24T, W35G, W37L, K39P, S40Y, V41P, D42P, N69V, G71S, T79K
notes: FN3 domain
B8: SEQ ID NO 174 (designed binder)
chain: B1 chain with W35G, W37L, K39P, S40Q, V41P, D42P, N69K, G71V, D82E
notes: FN3 domain
B9: SEQ ID NO 197 (designed binder)
chain: MLPAPKNLVVSRVTEDSARLSWTAPDAAFDSFKIDYLEINDNGEAIVLTVPGSERSYDLTGLKPGTEYPVYIWGVKGGYPSSPLSAIFTT
notes: FN3 domain
B10: SEQ ID NO 212 (designed binder)
chain: B3 chain with Y33I, A35E, A37W, P39Q, R40I, P41G, D42V, S69W, L71G, H73Y
notes: FN3 domain
B11: SEQ ID NO 214 (designed binder)
chain: MLPAPKNLVVSRVTEDSARLSWTAPDAAFDSFAIPYGERQELGEAIVLTVPGSERSYDLTGLKPGTEYFVVIQGVKGGQPSYPLSAIFTT
notes: FN3 domain
B12: SEQ ID NO 233 (designed binder)
chain: B3 chain with A35V, R40I, D42N, L79R, L80N, S82D
notes: FN3 domain
B13: SEQ ID NO 237 (designed binder)
chain: MLPAPKNLVVSRVTEDSARLSWTAPDAAFDSFTILYGEMGTTGEAIVLTVPGSERSYDLTGLKPGTEYDVFIEGVKGGELSWPLSAIFTT
notes: FN3 domain
B14: SEQ ID NO 257 (designed binder)
chain: B3 chain with Y33H, A35V, A37H, D42S, S69E, L71G, H73V, G74S, L79D, S82V
notes: FN3 domain
B15: SEQ ID NO 278 (designed binder)
chain: B3 chain with Y33P, L79H, S82D
notes: FN3 domain
B16: SEQ ID NO 296 (designed binder)
chain: B1 chain with W35G, W37L, K39P, S40Q, V41P, D42P, V47I, G71T, T79F, D82M
notes: FN3 domain
B17: SEQ ID NO 303 (designed binder)
chain: B1 chain with W35A, W37F, K39F, S40A, V41N, D42P, N69K, G71V, D82E
notes: FN3 domain
B18: SEQ ID NO 307 (designed binder)
chain: MLPAPKNLVVSRVTEDSARLSWTAPDAAFDSFPITYSEPAHYGEAIVLTVPGSERSYDLTGLKPGTEYHVGIMGVKGGVFSSPLSAIFTT
notes: FN3 domain
B19: SEQ ID NO 261 (designed binder)
chain: B13 chain with L35V, M39W, T41V, T42P, F71W, E79D, F88V
notes: FN3 domain
B20: SEQ ID NO 292 (designed binder)
chain: MLPAPKNLVVSRVTEDSARLSWTAPDAAFDSFDIAYWELTPSGEAIELLVPGSERSYDLTGLKPGTEYRVDIIGVKGGFISEPLGATFTT
notes: FN3 domain
B21: SEQ ID NO 294 (designed binder)
chain: MLPAPKNLVVSRVTEDSARLSWTAPDAAFDSFSIIYSEWNVTGEAIVLTVPGSERSYDLTGLKPGTEYDVWIEGVKGGGMSKPLSAISTT
notes: FN3 domain
B22: SEQ ID NO 297 (designed binder)
chain: MLPAPKNLVVSRVTEDSARLSWTAPDAAFDSFLIPYAETSPSGEAITLFVPGSERSYDLTGLKPGTEYNVVIQGVKGGRPSNPLVAASTT
notes: FN3 domain
B23: SEQ ID NO 299 (designed binder)
chain: MLPAPKNLVVSRVTEDSARLSWTAPDAAFDSFLIEYWESVGYGEAIVLTVPGSERSYDLTGLKPGTEYWVGIYGVKGGYYSRPLSAIFTT
notes: FN3 domain
B24: SEQ ID NO 301 (designed binder)
chain: MLPAPKNLVVSRVTEDSARLSWTAPDAAFDSFEIEYDEPYRGGEAIVLTVPGSERSYDLTSLKPGTEYPVSIGGVKGGITSDPLSAIFTT
notes: FN3 domain
B25: SEQ ID NO 308 (designed binder)
chain: MLPAPKNLVVSEVTEDSARLSWQGVARAFDSFLITYREQIFAGEVIVLTVPGSERSYDLTGLKPGTEYPVWIQGVKGGSPSAPLSAISTT
notes: FN3 domain
B26: SEQ ID NO 309 (designed binder)
chain: B9 chain with K33I, I39L, N40D, D41Q, N42E, P69A, W73F, S82T
notes: FN3 domain
B27: SEQ ID NO 83 (designed binder)
chain: B23 chain with L33Y, E35Y, W37Y, V40S, Y42T, W69F, G71D, Y73G, Y79S, R82L
notes: FN3 domain
B28: SEQ ID NO 96 (designed binder)
chain: B1 chain with W35G, W37L, K39P, S40Q, V41P, D42P, G71T, T79F, D82M
B29: SEQ ID NO 284 (designed binder)
chain: B1 chain with W35G, W37L, K39P, S40Q, V41P, D42P, G71T, T79F, D82M

What follows are binders tested against T1, recombinant biotinylated CD71 extracellular domain (Sino Biologics) with an N-terminal 6His tag (human, UniProt P02786 89-760, biotinylated (sites not given)) (assay: screening ELISA, ratio).
T1 construct: extracellular domain; also called hCD71; huCD71
T1 sequence (P02786 other isoform, or with tags, fused parts or gaps): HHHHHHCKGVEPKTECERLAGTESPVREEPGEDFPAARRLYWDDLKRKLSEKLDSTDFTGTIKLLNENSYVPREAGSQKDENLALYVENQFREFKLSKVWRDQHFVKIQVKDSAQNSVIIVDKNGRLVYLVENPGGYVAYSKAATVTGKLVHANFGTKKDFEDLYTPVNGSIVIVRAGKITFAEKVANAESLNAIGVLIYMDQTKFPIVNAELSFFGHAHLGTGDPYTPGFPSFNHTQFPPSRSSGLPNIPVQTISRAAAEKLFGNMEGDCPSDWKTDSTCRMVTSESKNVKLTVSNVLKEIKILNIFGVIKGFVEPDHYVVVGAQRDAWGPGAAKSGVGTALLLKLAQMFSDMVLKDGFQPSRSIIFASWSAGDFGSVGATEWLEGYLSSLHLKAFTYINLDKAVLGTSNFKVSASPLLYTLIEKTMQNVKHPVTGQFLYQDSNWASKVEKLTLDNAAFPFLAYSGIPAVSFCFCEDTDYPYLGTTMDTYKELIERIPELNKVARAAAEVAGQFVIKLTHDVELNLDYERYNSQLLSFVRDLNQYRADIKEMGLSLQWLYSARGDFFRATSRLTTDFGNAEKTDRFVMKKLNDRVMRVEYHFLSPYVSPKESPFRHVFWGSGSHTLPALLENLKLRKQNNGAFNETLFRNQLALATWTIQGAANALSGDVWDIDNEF

Binder	hCD71:HSA
B1	1160
B2	706
B3	809
B4	826
B5	534
B6	2370
B7	1480
B8	1100
B9	242
B10	1110
B11	974
B12	1310
B13	2240
B14	601
B15	568
B16	844
B17	1330
B18	503
B19	763
B20	296
B21	174
B22	49
B23	1940
B24	55
B25	50
B26	1100
B27	1480

What follows are binders tested against T1, recombinant biotinylated CD71 … (assay: screening ELISA).

Binder	hCD71
B1	2.91e+06
B2	4.03e+06
B3	3.07e+06
B4	2.77e+06
B5	2.83e+06
B6	2.6e+06
B7	2.9e+06
B8	2.42e+06
B9	4.57e+06
B10	2.49e+06
B11	2.14e+06
B12	3.41e+06
B13	4.15e+06
B14	2.37e+06
B15	3.69e+06
B16	2.7e+06
B17	3.51e+06
B18	2.19e+06
B19	4.23e+06
B20	2.62e+06
B21	1.44e+06
B22	2.59e+06
B23	4.27e+06
B24	660000
B25	609000
B26	3.14e+06
B27	1.93e+06

The binders below were run against CD71 on SK-BR-3 cells (human, UniProt P02786 1-760) (assay: cell-based or functional assay).
CD71 on SK-BR-3 cells, sequence (P02786 whole entry): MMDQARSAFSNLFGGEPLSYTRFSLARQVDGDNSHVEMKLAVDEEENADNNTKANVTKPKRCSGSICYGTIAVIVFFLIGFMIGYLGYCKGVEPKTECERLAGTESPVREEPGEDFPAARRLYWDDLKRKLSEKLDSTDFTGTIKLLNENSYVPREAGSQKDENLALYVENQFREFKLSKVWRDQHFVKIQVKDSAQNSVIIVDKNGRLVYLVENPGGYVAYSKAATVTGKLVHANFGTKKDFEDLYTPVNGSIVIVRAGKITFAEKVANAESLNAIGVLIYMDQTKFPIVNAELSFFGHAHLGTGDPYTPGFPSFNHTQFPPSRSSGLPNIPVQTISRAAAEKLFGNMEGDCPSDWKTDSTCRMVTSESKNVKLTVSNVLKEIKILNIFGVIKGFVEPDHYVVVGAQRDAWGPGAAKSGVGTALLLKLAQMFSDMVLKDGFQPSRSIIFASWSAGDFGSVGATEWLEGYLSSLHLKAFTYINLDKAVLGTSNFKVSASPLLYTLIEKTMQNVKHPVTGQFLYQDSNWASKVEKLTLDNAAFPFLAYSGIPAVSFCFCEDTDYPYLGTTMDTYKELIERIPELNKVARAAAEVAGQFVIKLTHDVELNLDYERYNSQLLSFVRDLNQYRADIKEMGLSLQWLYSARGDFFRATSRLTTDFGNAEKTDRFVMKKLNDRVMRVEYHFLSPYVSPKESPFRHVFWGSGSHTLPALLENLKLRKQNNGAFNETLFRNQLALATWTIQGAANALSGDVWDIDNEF

Binder	IC50, SKBR-3 viability, MMAF conjugate, second unlabelled column (+/- human transferrin)	IC50, SKBR-3 viability, MMAF conjugate, first unlabelled column (+/- human transferrin)
B1	89 nM	–
B28	27 nM	79.5 nM
B2	0.503 nM	2.32 nM
B3	3.46 nM	7.13 nM
B4	5.5 nM	9.7 nM
B5	5.24 nM	19.6 nM
B6	55.8 nM	18.7 nM
B7	7.2 nM	32 nM
B8	158 nM	–
B9	0.468 nM	–
B10	6.69 nM	–
B11	29.2 nM	28.1 nM
B12	17.7 nM	54.6 nM
B13	3.76 nM	28.1 nM
B14	6.5 nM	22 nM
B15	3.7 nM	13.2 nM
B29	32 nM	98 nM
B16	18.6 nM	29.3 nM
B17	39 nM	33 nM
B18	30.8 nM	47.9 nM
B19	31.2 nM	1.24 nM

From US20210145976A1 (ARO BIOTHERAPEUTICS, published 2021)
